T1: human IL-1α (human, UniProt P01583 113-271)
T1 sequence (looked up): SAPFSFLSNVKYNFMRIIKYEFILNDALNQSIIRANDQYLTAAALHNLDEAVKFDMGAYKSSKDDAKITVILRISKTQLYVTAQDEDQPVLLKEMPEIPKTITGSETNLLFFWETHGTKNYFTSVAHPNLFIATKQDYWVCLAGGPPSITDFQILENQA


Key:
human IL-1β [1] = target: T2, human IL-1β (human, UniProt P01584 117-269); test: cell-based or functional assay
human IL-1α = target: T1, human IL-1α; test: BIAcore (refers to Example 9)
Description: Affinities and specificities of both Hu007 and Mu007 were determined using BIAcore measurements. BIAcore™ is an automated biosensor system that measures molecular interactions. (Karlsson, et al. (1991) J. Immunol. Methods 145: 229-240). In these experiments antibody was immobilized at low density on a BIAcoreTm chip. Ethyl-dimethylaminopropyl-carbodiimide (EDC) was used to couple reactive amino groups to purified goat anti-human IgG or oat anti-rabbit IgG to a flow cell of a carboxy-methyl (CM5) BIAcore™ sensor chip. Goat IgG was diluted in sodium cetate buffer, pH 4.0, and immobilized on a flow cell of a M5 chip using EDC to yield 1000 response units. Unreacted sites were blocked with ehanolamine. A flow rate of 60 μl/min was used. Multiple binding/elution cycles were performed by injection a 100 μl solution of 15 μg/mL Mu007 or Hu007 followed by human IL-1β, mouse IL-1β, rat IL-1β, cynomolgus monkey IL-1β, porcine IL-1β, human IL-1 receptor antagonist, and human IL-1α at decreasing concentrations for each cycle (e.g. 1500, 750, 375, 188, 94, 47, 23.5, 12, and 0 picomolar). Elution was performed with glycine-HCl, pH 1.5. BIAevaluation™ was used to analyze the kinetic data. Table 2 depicts the affinities of Hu007 and Mu007 for human and cynomolgus IL1β. […] Cynomolgus and porcein IL-1β had 100% binding to Hu007 relative to human IL-1β.

human IL-1β [2] = target: T2, human IL-1β; test: cell-based or functional assay; remark: listed apart in the source
human IL-1β [3] = target: T2, human IL-1β; test: BIAcore, antibody immobilized at low density, ligand flowed (refers to Example 9)
Description: The binding affinity of the Mu007 antibody was determined using surface plasmon resonance (BIAcore™). In these experiments antibody was immobilized at low density on a BIAcore™ chip and ligand was flowed past. Build up of mass at the surface of the chip was measured. This analytical method allows the determination in real time of both on and off rates for binding. The Mu007 antibody has an affinity of approximately 6.0 picomolar (See Example 9). […] (See example 9). Hu007 comprises heavy and light chains that correspond to SEQ ID NO:17 and SEQ ID NO:13, respectively.
Affinities and specificities of both Hu007 and Mu007 were determined using BIAcore measurements. BIAcore™ is an automated biosensor system that measures molecular interactions. (Karlsson, et al. (1991) J. Immunol. Methods 145: 229-240). In these experiments antibody was immobilized at low density on a BIAcoreTm chip. Ethyl-dimethylaminopropyl-carbodiimide (EDC) was used to couple reactive amino groups to purified goat anti-human IgG or oat anti-rabbit IgG to a flow cell of a carboxy-methyl (CM5) BIAcore™ sensor chip. Goat IgG was diluted in sodium cetate buffer, pH 4.0, and immobilized on a flow cell of a M5 chip using EDC to yield 1000 response units. Unreacted sites were blocked with ehanolamine. A flow rate of 60 μl/min was used. […]

human IL-1β [4] = target: T2, human IL-1β; test: ELISA competition on coated human IL-1β, competitor biotinylated Mu007
Description: (§1) Wells of 96-well ELISA plates (Nunc-Immuno plate, Cat # 439454, NalgeNunc) were coated with 100 μμl of 0.5 μg/ml of human IL-1β in 0.2M sodium carbonate-bicarbonate buffer (pH 9.4) overnight at 4° C., washed with Wash Buffer, blocked with Superblock blocking buffer for 30 min at 37° C., and washed again with Wash Buffer. A mixture of biotinylated Mu007 (0.16 μg/ml final concentration) and competitor antibody (Mu007 or Hu007; starting at 100 μg/ml final concentration and serial 3-fold dilutions) in ELISA Buffer were added in triplicate in a final volume of 100 μl per well. As a no-competitor control, 100 μl of 0.16 μg/ml biotinylated Mu007 was used. As a background control, 100 μl of ELISA Buffer was used. ELISA plates were incubated at 37° C. for 2 hr. After washing the wells with Washing Buffer, 100 μl of 1 μg/ml HRP-conjugated streptavidin (Jackson ImmunoResearch) was added to each well. ELISA plates were incubated at room temperature for 30 min and washed with Washing Buffer. For color development, 100 μl/well of ABTS substrate was added. Color development was stopped by adding 100 μl/well of 2% oxalic acid. Absorbance was read at 415 nm.
(§2) Both Mu007 and Hu007 competed with biotinylated Mu007 in a concentration-dependent manner. […]

human IL-1β [5] = target: T2, human IL-1β; test: ELISA competition on coated human IL-1β, competitor biotinylated Mu007, Exp. A
Description: as §1, §2

human IL-1β [6] = target: T2, human IL-1β; test: ELISA competition on coated human IL-1β, competitor biotinylated Mu007, Exp. B
Description: as §1, §2

human IL-1β [7] = target: T2, human IL-1β; test: ELISA competition on coated human IL-1β, competitor biotinylated Mu007, Exp. C
Description: as §1, §2

human IL-1β [8] = target: T2, human IL-1β; test: ELISA competition on coated human IL-1β, competitor biotinylated Mu007, average
Description: as §1, §2

| Binder | inhibition of IL-1β stimulated proliferation of T1165.17 cells (3H-thymidine incorporation), average IC50 from three separate experiments (human IL-1β [1]) [nM] | binding result (human IL-1α) | IC50 (read off the curve) (human IL-1β [2]) [nM] | Kd (human IL-1β [3]) [nM] | neutralization of human IL-1β in the murine model of inflammatory stimulation, relative to Mu007 (human IL-1β [1]) | relative binding, fold less than that of Mu007 (human IL-1β [4]) [fold] | Difference (IC50 of Hu007 against IC50 of Mu007) (human IL-1β [5]) [ratio] | Difference (IC50 of Hu007 against IC50 of Mu007) (human IL-1β [6]) [ratio] | Difference (IC50 of Hu007 against IC50 of Mu007) (human IL-1β [7]) [ratio] | Difference (IC50 of Hu007 against IC50 of Mu007) (human IL-1β [8]) [ratio] |
| --- | --- | --- | --- | --- | --- | --- | --- | --- | --- | --- |
| mouse monoclonal antibody Mu007 (antibody, V domains shown) VH: QVQLVQSGAEVKKPGASVKVSCKVSGYTFSRYWIEWVRQAPGKGLEWIGEILPGNGNINYNEKFKGKATITADTSTDTAYMELSSLRSEDTAVYYCSTIYYDYDQGFTYWGQGTLVTVSA VL: DIKMTQSPSSMYASLGERVTITCKASQDIDRYLSWFQQKPGKSPKTLIYRVKRLVDGVPSRFSGSASGQDYSLTISSLQYEDMGIYYCLQYDEFPYTFGGGTKLEIK | 0.22 | no binding | ~0.2 | ~0.006 |  |  |  |  |  |  |
| humanized antibody Hu007 (antibody, human IgG1, kappa, V domains shown, the listing entries may be nucleotide entries with a translation; also called Hu007 IgG1 monoclonal antibody) VH: QVQLVQSGAEVKKPGASVKVSCKVSGYTFSRYWIEWVRQAPGKGLEWIGEILPGNGNINYNEKFKGKATITADTSTDTAYMELSSLRSEDTAVYYCSTIYYDYDQGFTYWGQGTLVTVSS VL: DIQMTQSPSSLSASVGDRVTITCKASQDIDRYLSWFQQKPGKAPKSLIYRVKRLVDGVPSRFSGSASGTDYTLTISSLQPEDFATYYCLQYDEFPYTFGQGTKLEIKR | 0.48 |  | ~0.4 | 0.01 to 0.02 | ~0.33 fold of Mu007 | 1.3 | 0.98 | 0.88 | 0.82 | 0.89 |

— patent US20050075488A1 (published 2005)
